In US20240247080A1, “GLP1/GIP/NPY2 RECEPTOR TRIPLE AGONISTS” (Boehringer Ingelheim International GmbH, priority 2022, published 2024):
Starred links: 1 amine or outer side, 2 acyl side, 3 side chain; linkers in the order of their positions; H or OH if unused. Non-standard residues stand in square brackets, D forms with d. Groups on a side chain read outwards from the residue. No end group written: not given here. *: point of attachment. C20 diacid = O=C(O)CCCCCCCCCCCCCCCCCCC(=O)*; γGlu = O=C(O)[C@H](CCC(=O)[*:2])N[*:1]; εLys = N[C@@H](CCCCN[*:1])C(=O)[*:2]; AEEA = NCCOCCOCC(=O)O; Aib = CC(C)(N)C(=O)O

T1: GIP receptor (human (printed as hGIPR), UniProt P48546 22-466)
T1 sequence (looked up): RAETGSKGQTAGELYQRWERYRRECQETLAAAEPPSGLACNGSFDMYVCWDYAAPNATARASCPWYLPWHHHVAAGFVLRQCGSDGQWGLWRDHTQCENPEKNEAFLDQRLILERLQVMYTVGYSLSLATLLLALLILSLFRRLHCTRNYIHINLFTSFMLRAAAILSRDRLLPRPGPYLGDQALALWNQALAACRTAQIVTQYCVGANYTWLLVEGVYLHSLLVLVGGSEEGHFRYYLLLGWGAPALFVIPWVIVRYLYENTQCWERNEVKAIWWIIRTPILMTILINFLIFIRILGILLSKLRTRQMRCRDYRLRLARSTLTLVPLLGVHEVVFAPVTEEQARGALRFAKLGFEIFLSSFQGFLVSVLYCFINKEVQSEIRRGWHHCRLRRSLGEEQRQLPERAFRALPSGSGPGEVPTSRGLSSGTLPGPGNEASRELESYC

T2: NPY2 receptor (human (printed as hNPY2R), UniProt P49146 1-381)
T2 sequence (looked up): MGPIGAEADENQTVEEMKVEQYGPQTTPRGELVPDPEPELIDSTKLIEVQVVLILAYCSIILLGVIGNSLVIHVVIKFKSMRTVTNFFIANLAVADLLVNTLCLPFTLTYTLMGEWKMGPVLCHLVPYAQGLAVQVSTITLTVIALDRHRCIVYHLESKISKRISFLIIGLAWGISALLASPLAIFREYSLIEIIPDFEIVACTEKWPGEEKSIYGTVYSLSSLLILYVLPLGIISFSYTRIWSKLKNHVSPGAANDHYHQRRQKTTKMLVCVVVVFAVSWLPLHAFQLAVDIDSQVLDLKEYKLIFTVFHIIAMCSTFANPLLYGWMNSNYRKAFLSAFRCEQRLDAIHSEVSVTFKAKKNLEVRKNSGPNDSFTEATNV


Columns and labels:
Test in all cases: cell-based or functional assay
GLP-1 receptor = GLP-1 receptor (human (printed as hGLP1R), UniProt P43220 24-463)
GIP receptor = molecular target: T1, GIP receptor
NPY2 receptor = molecular target: T2, NPY2 receptor

Row | EC50 hGLP1R 0.5% hP (CreLuc) (GLP-1 receptor) [nM] | EC50 hGLP1R 100% hP (CreLuc) (GLP-1 receptor) [nM] | EC50 hGIPR 0.5% hP (CreLuc) (GIP receptor) [nM] | EC50 hGIPR 100% hP (CreLuc) (GIP receptor) [nM] | EC50 hNPY2R 0.5% hP (CreLuc) (NPY2 receptor) [nM] | EC50 hNPY2R 100% hP (CreLuc) (NPY2 receptor) [nM] | Binder
1 | 0.21 | 4.88 | 0.19 | 1.64 | 15.3 | 36.8 | YXEGTFTSDYSIXLEKQAQXAFVEWLIKGGPSYGASLRHYYNWLTRQRY (Aib at 2, 13, 20; K28 side chain carries C20DA-gGlu-gGlu-gGlu-gGlu-gGlu-gGlu-eLys; C-terminal amide) [Compound 232]
2 | 0.17 | 1.7 | 0.08 | 0.75 | 12.6 | 27.1 | YXEGTFTSDYSIXLEKQAQXAFVEWLIKGGPSEPASLRHYYNWLTRQRY (Aib at 2, 13, 20; K28 side chain carries C20DA-gGlu-gGlu-gGlu-gGlu-gGlu-gGlu-eLys; C-terminal amide) [Compound 233]
3 | 0.26 | 3.42 | 0.3 | 1.41 | 31 | 86.6 | YXEGTFTSDYSIXLEKQAQXAFVEWLIKGGPSEGASLRHYYNWLTRQRY (Aib at 2, 13, 20; NMeR (N-methyl-L-arginine) at 48; K28 side chain carries C20DA-gGlu-gGlu-gGlu-gGlu-gGlu-gGlu-eLys; C-terminal amide) [Compound 236]
4 | 0.11 | 4.76 | 0.35 | 1.55 | 13.6 | 57 | Y[Aib]EGTFTSDYSI[Aib]LEKQAQ[Aib]AFVQWLIK([AEEA-AEEA-Glu-Glu-Glu-Glu-C20 diacid])GGPSEGASLRHYYNWLTRQRY-NH2 (also: TFA salt) [Compound 239]
5 | 0.29 | 8.23 | 0.28 | 1.43 | 15.4 | 59.1 | Y[Aib]EGTFTSDYSI[Aib]LEKQAQ[Aib]AFVEWLIK([εLys-γGlu-γGlu-γGlu-γGlu-γGlu-C20 diacid])GGPEEGASLRHYYNWLTRQRY-NH2 (also: TFA salt) [Compound 230]
6 | 0.14 | 6.74 | 0.33 | 1.97 | 10.7 | 77.5 | Y[Aib]EGTFTSDYSI[Aib]LEKQAQ[Aib]AFVQWLIK([εLys-Glu-Glu-Glu-Glu-Glu-C20 diacid])GGPSEGASLRHYYNWLTRQRY-NH2 (also: TFA salt) [Compound 240]

Further lines, the binder ahead of its results:

Row | Binder | EC50 hGLP1R 0.5% hP (CreLuc) (GLP-1 receptor) [nM] | EC50 hGLP1R 100% hP (CreLuc) (GLP-1 receptor) [nM] | EC50 hGIPR 0.5% hP (CreLuc) (GIP receptor) [nM] | EC50 hGIPR 100% hP (CreLuc) (GIP receptor) [nM] | EC50 hNPY2R 0.5% hP (CreLuc) (NPY2 receptor) [nM] | EC50 hNPY2R 100% hP (CreLuc) (NPY2 receptor) [nM]
7 | YXEGTFTSDYSIXLEKQAQXAFVQWLIKGGPSEGASLRHYYNWLTRQRY (Aib at 2, 13, 20; K28 side chain carries C20DA-gGlu-gGlu-gGlu-gGlu-gGlu-OEG-OEG; C-terminal amide) [Compound 228] | 0.12 | 4.18 | 0.23 | 1.52 | 9.6 | 30.1
8 | YXEGTFTSDYSIXLEKQAQXAFVEWLIKGGPSEGASLRHYYNWLTRQRY (Aib at 2, 13, 20; NMeQ (N-methyl-L-glutamine) at 47; K28 side chain carries C20DA-gGlu-gGlu-gGlu-gGlu-gGlu-gGlu-eLys; C-terminal amide) [Compound 222] | 0.24 | 4.43 | 0.19 | 1.85 | 13.3 | 41.6
9 | YXEGTFTSDYSIXLEKQAQXAFVEWLIKGGPSSGASLRHYYNWLTRQRY (Aib at 2, 13, 20; K28 side chain carries C20DA-gGlu-gGlu-gGlu-gGlu-gGlu-gGlu-eLys; C-terminal amide) [Compound 221] | 0.11 | 2.23 | 0.14 | 0.92 | 12.4 | 49.3
10 | YXEGTFTSDYSIXLEKQAQXAFVEWLIKGGPSEGQSLRHYYNWLTRQRY (Aib at 2, 13, 20; K28 side chain carries C20DA-gGlu-gGlu-gGlu-gGlu-gGlu-gGlu-eLys; C-terminal amide) [Compound 227] | 0.13 | 3.07 | 0.06 | 1.23 | 10.2 | 44.2
11 | Y[Aib]EGTFTSDYSI[Aib]LEKQAQ[Aib]AFVQWLIK([εLys-γGlu-γGlu-γGlu-γGlu-γGlu-γGlu-γGlu-C20 diacid])GGPSEGASLRHYYNWLTRQRY-NH2 (also: TFA salt) [Compound 224] | 0.13 | 3.24 | 0.43 | 1.35 | 10.6 | 31.6
